Data published in the nanobody polyreactivity screen of Harvey et al. (2022).

Test: yeast display, Sf9 membrane polyspecificity reagent, FACS + sequencing; frameworks hold sequencing errors
In short: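 Nanobodies from a synthetic yeast display library (Saccharomyces cerevisiae BJ5465), induced 36–48 hours with galactose, were stained 1 hour at 4 °C with 10% biotinylated, detergent-solubilized Sf9 membrane reagent, enriched on streptavidin microbeads, then FACS-sorted. Anti-HA (expression) and streptavidin (reagent binding) fluorescence set low and high (top ~1%) gates. Polyreactivity labels come from the gate of origin. Genes were colony-PCR amplified, MiSeq 2 × 250 sequenced and filtered by CDR length.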

| Sequence | polyreactivity (PSR sort gate) |
| --- | --- |
| QVQLVESGGGLVQAGGSLRLSCPASASIFLSNMGWYRQAPGKERELVAAITIGGSTDYADSVKGRFTISRDNAKNTVYLQMNSLKPEDTAVYYCNADNPYSDGADSLGNYWGQGTQVTVSS | low polyreactivity |
| QVQLVESGGGLVQAGGSLRLSCPASGFIFQHYAMGWYRQAPGKERELVAAIDFTDGSTYYADSVKGRFTISRDNAKNTVYLQMNSLKPEDTAVYYCNALDYLYGGIYLDEDYWGQGTQVTVSS | low polyreactivity |
| QVQLVESGGGLVQAGGSLRLSCPASGFIFWYNVMGWSRQAPGKERELVAAISGRGGSTYYADSVKGRFTISRDNAKNTVYLQMNSLKPEDTAVYYCNTFSYRSGAYGYWGQGTQVTVSS | high polyreactivity |
| QVQLVESGGGLVQAGGSLRLSCPASGFTFDVNAMGSYRQAPGKERELVATISSNGGSTYYADSVKGRFTISRDNAKNTVYLQMNSLKPEDTAVYYCNRGEIYFDNDDFDYWGQGTQVTVSS | low polyreactivity |
| QVQLVESGGGLVQAGGSLRLSCPASGFTFYYYAMGWYRQAPGKERELVAAISYSGGSTYYADSVKGRFTISRDNAKNTVYLQMNRLKPEDTAVYYCAADLSTYRRGFDYWGQGTQVTVSS | high polyreactivity |
| QVQLVESGGGLVQAGGSLRLSCPASGGIFGRYAMGWYRQAPGKERELVAAISSSGGRTYYADSVKGRFTISRDNAKNTVYLQMNSLKPEDTAVYYCNADRHSTYGYWGQGTQVTVSS | high polyreactivity |
| QVQLVESGGGLVQAGGSLRLSCPASGIIFSTYAMGWYRQAPGKERELVATITSSGSNTYYADSVKGRFTISRDNAKNTVYLQMNSLKPEDTAVYYCATYSFFWWQYDYWGQGSQVTVSS | high polyreactivity |
| QVQLVESGGGLVQAGGSLRLSCPASGLIYYRYVMGWYRQAPGKERELVAAISGNGASTYYADSVKGRFTISRDNAKNTVFLQMNSLKPVDTAVYYCNADVYVSSKTHSSYPQWWGYDYWGQGTQVTVSS | low polyreactivity |
| QVQLVESGGGLVQAGGSLRLSCPASGRIFGVYAMGWYRQAPGKESELVAAIRYRGGSTYYADSVKGRFTISRDNAKNSVYLQMNSLIPEDTAVYYCAAEVWGVGYYAPYGYWGQGTQVTVSS | high polyreactivity |
| QVQLVESGGGLVQAGGSLRLSCPASGRIFGYNSMGWYRQAPGKEREMVATMSSGGGSNYADSVKGRFTISRDNAKNTVYLQMKSLKPEDTAVFYCAADLFLDGSSLYAPNWWPDGWNTYRVLGGYWGQGTQVTVSS | low polyreactivity |
| QVQLVESGGGLVQAGGSLRLSCPASGRIFRYYPMGWYRQAPGKEREFVAGITWSGGRTYYADSVKGRFTISRDNAKNTVFVQMNSLKPEDTAVYYCNADAGTRVGWWDDYDYWGQGTQVTVSS | low polyreactivity |
| QVQLVESGGGLVQAGGSLRLSCPASGRIFYRYAMGWYRQEPGKERELVADITWRGGRTYYADSVKGRFTISRDNAKNTVYLQMNSLKPEDTAVYYCAATGGFSWSRDYWGQGTQVTVSS | low polyreactivity |
| QVQLVESGGGLVQAGGSLRLSCPASGSIIIRNAMGWYRQAPGKERELVAAISIGDGSTYADSVKGRFTISRDNAKNTVYLQMNSLKPEDTAVYYCAADRYGFYLESYYWGQGTQVTVSS | low polyreactivity |
| QVQLVESGGGLVQAGGSLRLSCPASGSIIYYAMGWSRQPPGKEREFVAAITKSGGSTYYADSVKGRFTFSRDNAKNTVYLQMNSLKPEDTAVYYCSARGTWAGFYYWGQGTQVTVSS | high polyreactivity |
| QVQLVESGGGLVQAGGSLRLSCPASGSIYGLYSMGWYRQAPGKERELVAVITYSVGTTYYADSVKGRFTISRDNAKNTVYLQMNSLKPEDTAVYYCAADLYWYYPWSAYYGEYDYWGQGTQVTVSS | low polyreactivity |
| QVQLVESGGGLVQAGGSLRLSCPASGSNLYPYAMGSSTQPPATEREMVATISYSVVSTYYAESVKGRFTISRDNAKNTVYLQMNSLKPEDTAVYYCADKSRSSKYVYWGQGTQVSVSS | high polyreactivity |
| QVQLVESGGGLVQAGGSLRLSCPASGSTFAIYGMGWYRQAPGKERELVAGITRGGSTNYADSVKGRFTISRDNAKNTVYLQMNILKPEDTAVYYCNSPLGVRRFKSKGRSHYEYWGQGTQVSVSS | high polyreactivity |
| QVQLVESGGGLVQAGGSLRLSCPASGSTFGPYAMGWYRQAPGKERELVATISGSGSSTYYADSVKGRFTISRDNAKNTVDLQMNSLKPEDTAFYYCATDLYFDLRYDYWGQGTQVTVSS | low polyreactivity |
| QVQLVESGGGLVQAGGSLRLSCPASGSTFYEYAMGWYRQEPGKERELVAAITSGGSTYYADSVKGRFTISRDNAKYTVYLQLNSQKPEDTAVYYCAADPRIRRGDRSTHGYDYWGQGTQVTVSS | low polyreactivity |
| QVQLVESGGGLVQAGGSLRLSCPASGTLTVNTMGWYRQAPGKERELVAAISTGDTTTYADSVKGRFTISRDNAKNTVYVQMNSLKPEDTAVYYCNVDIGVYAYESDYWGQGSQVTVSS | low polyreactivity |
| QVQLVESGGGLVQAGGSLRLSCPDSAFTFSLYGMGWYRQAPGKEREMVAAIRSGGSTNYADSVKGRFTISRDNAKNTVYLQMNSVKPEDTAVYVCATDIHSVHNNRDKHDYDYWGQGTQVTVSS | low polyreactivity |
| QVQLVESGGGLVQAGGSLRLSCSACGGIFDWYAMGWYRQAPGKERELVAAIDFSGDSTYYADSVKGRFTISRDNAKNTVYLQMNSLKPEDTAVYYCAAETNTWYLFDYWGQGTQVTVSS | high polyreactivity |

| Sequence | polyreactivity (PSR sort gate) |
| --- | --- |
| QVQLVESGGGLVQAGGSLRLSCSASGFIFFRYSMGWYIQAPGKERELVAAINSSGDSTYADSVKGRFTISRDNAKNTFYLQMNSLKPEDTAVYYCATGGRTEIWYPTLDYWGQGTQVTVSS | low polyreactivity |
| QVQLVESGGGLVQAGGSLRLSCSASGFIFQGYAMGWDRQAPGKERELVATITTSSRTYYADSVKGRFTISRDNAKNTVYLQMYSLKPEDTAVYYCATRGSYRSQRWYGYWGQGTQVTVSS | high polyreactivity |
| QVQLVESGGGLVQAGGSLRLSCSASGFIFYKNAMGWYRQAPGKERELVAAISGGGGSTYYADSVKGRFTISRDNAKNTVYLQMNSLKPDDTAVYYCATYSFRRTGWRYDYWGQGSQVTVSS | high polyreactivity |
| QVQLVESGGGLVQAGGSLRLSCSASGFNFRRYAMGLYRQAPGKERELVAVITSGGSTYYADSVKGRFTISRDNAKNTVYLQMNSLKTEDTAVYYCAARYYWYSQEYVLSSWWGDYCGQGTQVTVSS | high polyreactivity |
| QVQLVESGGGLVQAGGSLRLSCSASGIIFYFYAMGWYRQAPGKERELVAAISDDGVSTDYADSVKGRFTISRDNAKNTVYLQMNSLKPEDTAVFYCNARYSGYLRLDYWGQGTQVTVSS | low polyreactivity |
| QVQLVESGGGLVQAGGSLRLSCSASGITFKLNSMGWYRQAPGKERELVAAITSTGGSTYYADSVKGRFTISRDNAKNTVYLQMNSLKPEDTAVYYCATDILIDGFYSDYWGQGTQVTVSS | high polyreactivity |
| QVQLVESGGGLVQAGGSLRLSCSASGITFLHYAMGWYIQAPGKERELVARITYSGSSTYYADSVKGRFTISRDNAKNTVYLQMNSLKPEDTAVYYCNASASWGRWSRTGTPRYYYWGQGTQVTVSS | high polyreactivity |
| QVQLVESGGGLVQAGGSLRLSCSASGLTFYSYTKGWYRQAPGKERELVAAISYSGGNTYYADSVKGRFTISRDNAKNTVYLQMNSLKQEDTAVYYCNAYFRWYWLIEYDYWGQGTQVTVSS | high polyreactivity |
| QVQLVESGGGLVQAGGSLRLSCSASGNIIRKYAMGWYRQAPGKEREFVAAISSSGGRTYYADSVKGRFTISRDNAKNTVYLQMNSLKPEDTAVYYCAKDPYGRLQPRPRFGYWGQGTQVTVSS | high polyreactivity |
| QVQLVESGGGLVQAGGSLRLSCSASGNNFESYGMGWYRQAPGKERELVATINTSSGSTNYADSVKGRFTISRDNAKNTVYVQMNSLKPEDTAVYYCAAVFVEQGEDDYWGQGTQVTVSS | low polyreactivity |
| QVQLVESGGGLVQAGGSLRLSCSASGRIFFSYAMGWYRQAPGKERELVAAISRDGGTPYYADSVKGRFTISRDNAKNTVSLLLNSLKPEDTAVYYCADDWYLRRRIYGYWGQGTEVTVSS | high polyreactivity |
| QVQLVESGGGLVQAGGSLRLSCSASGRIFKRYAMGWYRQSPGKERELVAAFTRGGSTNYADSVKGRFTISRDNAKNTVYLQMNSLKPEDTAVYYCNRYGGTRYWGRGTQVTVSS | high polyreactivity |
| QVQLVESGGGLVQAGGSLRLSCSASGRIFPRYAMGWYIQEPGKEMELFATISSGGSTYYADSVKGRFTITRDNAKNTVYLQMNSLKPEDTADYYCADRKGQYTVINGMDYWGQGTQVTVSS | low polyreactivity |
| QVQLVESGGGLVQAGGSLRLSCSASGRIFRINAMGWYRQAPGKDRELVASISRRGGNTYYADSVKGRFTISRDNAKNTVYLQMNSLKPEDTAVYYCAADVHTPALYTYAAGDYWGQGTQVTVSS | low polyreactivity |
| QVQLVESGGGLVQAGGSLRLSCSASGRTFNKYAMGWYRQAPGKERELVAAISRSGGSTYYADSVKGRFTISRDNAKNTVYLQMNSLKPEDTAVYYCNAAYFGQHVGTGFDYWGQGTQVTVSS | high polyreactivity |
| QVQLVESGGGLVQAGGSLRLSCSASGRTSVLYAMGWYRQAPGKEREFVAAITWNSGSTYYADSVKGRFTISRDHAKNTVYLQMISLKPEDTAVYYCNADYYFSSYRSTYDYWGQGTQVTVSS | low polyreactivity |
| QVQLVESGGGLVQAGGSLRLSCSASGSIFAYYAMGWYRQAPGKERELVAAISKSAGSTYYADSVKGRFTISRDNAKNTVYLQMNSLKPEDTAVYYCAAVVLGRRLGFRGDYNYWGQGTQVTVSS | high polyreactivity |
| QVQLVESGGGLVQAGGSLRLSCSASGSIFGYYGMGLYRQAPGKERELVATISWSGDSTNYADSVKGRFTISRDNAKNTVYLQMNSLKPEDTAVYYCAAEWHAGWGGWLRYRHYEYWGQRTQVTVSS | low polyreactivity |
| QVQLVESGGGLVQAGGSLRLSCSASGSIFKRNAMGWYRQAPGKERELVAAITTRGGRTYYADSVKGRFTISRDNAKNTVYLQLNSLKPEDTAVYFCAVVPAAGSGGYGYSRYDYWGQGSQVTVSS | high polyreactivity |
| QVQLVESGGGLVQAGGSLRLSCSASGSIFKYYTMGWYRQAPGKERELVASINGGGSTNYADSVKGRFTISRDNAKNTVYLQMNSLKPEDTAVYYCNARYWWQDGYWGQGTQLTVSS | high polyreactivity |
| QVQLVESGGGLVQAGGSLRLSCSASGSIFPYYAMGWSRQAPGKERELVAAISRSGGSTYYADSVKGRFTISRDNAKNTVYLQMNSLKPEDTAGYYCAAVGGVRPQQHYYYRYDYWGQGTQVTVSS | high polyreactivity |
